Values belong to the binder of their own block, whether it stands above or below them.
What was measured:
[1] = molecular target: T1, Core_IIII-es_KEEK; assay: two-hybrid library CCmax; conditions: mean of both orientations;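 also: natural log of median RNA to DNA barcode read ratio; higher means stronger binding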
T1 chain: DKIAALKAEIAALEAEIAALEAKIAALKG

[2] = molecular target: T2, 4H19-bN; assay: two-hybrid library CCNG1;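 also: natural log of median RNA to DNA barcode read ratio; higher means stronger binding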
T2 chain: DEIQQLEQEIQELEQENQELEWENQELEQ

[3] = molecular target: T3, 4H2883-bN; assay: two-hybrid library CCNG1;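 also: natural log of median RNA to DNA barcode read ratio; higher means stronger binding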
T3 chain: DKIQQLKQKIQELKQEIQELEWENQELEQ

[4] = molecular target: T4, 4H491-bN; assay: two-hybrid library CCNG1;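 also: natural log of median RNA to DNA barcode read ratio; higher means stronger binding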
T4 chain: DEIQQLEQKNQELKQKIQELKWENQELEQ

[5] = molecular target: T5, 4H2937-bN; assay: two-hybrid library CCNG1;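 also: natural log of median RNA to DNA barcode read ratio; higher means stronger binding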
T5 chain: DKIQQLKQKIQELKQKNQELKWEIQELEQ

[6] = molecular target: T6, 4H2944-bN; assay: two-hybrid library CCNG1;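 also: natural log of median RNA to DNA barcode read ratio; higher means stronger binding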
T6 chain: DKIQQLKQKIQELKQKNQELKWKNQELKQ

[7] = molecular target: T7, 4H48-bN; assay: two-hybrid library CCNG1
T7 chain: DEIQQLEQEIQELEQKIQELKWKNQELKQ

[8] = molecular target: T8, 4H342-bN; assay: two-hybrid library CCNG1
T8 chain: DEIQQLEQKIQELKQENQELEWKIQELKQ

[9] = molecular target: T9, 4H2696-bN; assay: two-hybrid library CCNG1
T9 chain: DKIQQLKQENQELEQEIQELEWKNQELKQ

[10] = molecular target: T10, Core_NIII-es_KKKE; assay: two-hybrid library CCmax; conditions: mean of both orientations
T10 chain: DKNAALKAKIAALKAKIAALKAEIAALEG

[11] = molecular target: T11, Core_NNNI-es_KKEK; assay: two-hybrid library CCmax; conditions: mean of both orientations
T11 chain: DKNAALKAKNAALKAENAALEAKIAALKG

[12] = molecular target: T12, Core_IIIN-es_KEEK; assay: two-hybrid library CCmax; conditions: mean of both orientations
T12 chain: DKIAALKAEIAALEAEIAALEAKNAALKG

[13] = molecular target: T13, Core_NNNN-es_KEEK; assay: two-hybrid library CCmax; conditions: mean of both orientations
T13 chain: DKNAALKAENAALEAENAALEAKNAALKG

[14] = molecular target: T14, Core_INII-es_KKEK; assay: two-hybrid library CCmax; conditions: mean of both orientations
T14 chain: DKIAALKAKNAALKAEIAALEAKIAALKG

[15] = molecular target: T15, 4H43-AA; assay: two-hybrid library CCmax; conditions: mean of both orientations
T15 chain: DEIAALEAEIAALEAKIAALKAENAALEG

[16] = molecular target: T16, 4H850-AA; assay: two-hybrid library CCmax; conditions: mean of both orientations
T16 chain: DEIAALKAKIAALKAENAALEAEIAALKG

[17] = molecular target: T17, 4H3590-AA; assay: two-hybrid library CCmax
T17 chain: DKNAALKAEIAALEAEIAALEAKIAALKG

[18] = molecular target: T18, P5-AA-12HAA-A; assay: two-hybrid library CCmax; conditions: mean of both orientations
T18 chain: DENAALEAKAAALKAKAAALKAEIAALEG

[19] = molecular target: T19, 4H485-AA; assay: two-hybrid library CCmax; conditions: mean of both orientations
T19 chain: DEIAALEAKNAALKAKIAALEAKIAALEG

[20] = molecular target: T20, O11-AA; assay: two-hybrid library CCmax; conditions: mean of both orientations
T20 chain: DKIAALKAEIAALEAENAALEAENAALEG

[21] = molecular target: T21, P5-AA-12HAA-V; assay: two-hybrid library CCmax; conditions: mean of both orientations
T21 chain: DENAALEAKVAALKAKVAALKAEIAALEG

[22] = molecular target: T22, P5-AA-12HAA-S; assay: two-hybrid library CCmax; conditions: mean of both orientations
T22 chain: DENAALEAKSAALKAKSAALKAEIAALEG

[23] = molecular target: T23, 4H458-AA; assay: two-hybrid library CCmax; conditions: mean of both orientations
T23 chain: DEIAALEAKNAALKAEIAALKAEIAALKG

[24] = molecular target: T24, 4H3905-AA; assay: two-hybrid library CCmax; conditions: mean of both orientations
T24 chain: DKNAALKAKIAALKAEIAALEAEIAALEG

[25] = molecular target: T25, 4H384-AA; assay: two-hybrid library CCmax; conditions: mean of both orientations
T25 chain: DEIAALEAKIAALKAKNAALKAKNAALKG

[26] = molecular target: 4H_GCN4; assay: two-hybrid library CCmax
Sequence of 4H_GCN4 (chain, as listed by the source): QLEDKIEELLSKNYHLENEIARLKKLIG

[27] = molecular target: T26, 4H629-AA; assay: two-hybrid library CCmax; conditions: mean of both orientations
T26 chain: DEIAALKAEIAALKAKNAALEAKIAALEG

[28] = molecular target: T27, 4H710-AA; assay: two-hybrid library CCmax; conditions: mean of both orientations
T27 chain: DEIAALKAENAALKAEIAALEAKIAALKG

[29] = molecular target: T28, 4H3697-AA; assay: two-hybrid library CCmax; conditions: mean of both orientations
T28 chain: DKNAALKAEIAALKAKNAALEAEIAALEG

[30] = molecular target: T29, 4H930-AA; assay: two-hybrid library CCmax; conditions: mean of both orientations
T29 chain: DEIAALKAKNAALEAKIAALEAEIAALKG

[31] = molecular target: T30, 4H510-AA; assay: two-hybrid library CCmax; conditions: mean of both orientations
T30 chain: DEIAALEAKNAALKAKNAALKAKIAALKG

[32] = molecular target: T31, O13-AA; assay: two-hybrid library CCmax; conditions: mean of both orientations
T31 chain: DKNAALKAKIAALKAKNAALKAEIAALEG

[33] = molecular target: T32, 4H4038-AA; assay: two-hybrid library CCmax; conditions: mean of both orientations
T32 chain: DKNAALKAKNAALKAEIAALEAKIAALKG

[34] = molecular target: T33, P5-AA-12HAA-Y; assay: two-hybrid library CCmax; conditions: mean of both orientations
T33 chain: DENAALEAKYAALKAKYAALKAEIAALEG

[35] = molecular target: T34, P5-AA-12HAA-L; assay: two-hybrid library CCmax; conditions: mean of both orientations
T34 chain: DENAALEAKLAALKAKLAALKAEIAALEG

[36] = molecular target: T35, O14-AA; assay: two-hybrid library CCmax; conditions: mean of both orientations
T35 chain: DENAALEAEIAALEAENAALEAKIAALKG

[37] = molecular target: T36, 4H891-AA; assay: two-hybrid library CCmax
T36 chain: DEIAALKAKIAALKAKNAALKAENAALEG

[38] = molecular target: T37, 4H_BCR; assay: two-hybrid library CCmax; conditions: mean of both orientations
T37 chain: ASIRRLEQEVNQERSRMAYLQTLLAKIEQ

[39] = molecular target: T38, P5-AA-12HAA-H; assay: two-hybrid library CCmax; conditions: mean of both orientations
T38 chain: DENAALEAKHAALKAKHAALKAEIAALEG

[40] = molecular target: T39, 4H451-AA; assay: two-hybrid library CCmax; conditions: mean of both orientations
T39 chain: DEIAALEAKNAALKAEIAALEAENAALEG

[41] = molecular target: T40, P5-AA-12HAA-E; assay: two-hybrid library CCmax; conditions: mean of both orientations
T40 chain: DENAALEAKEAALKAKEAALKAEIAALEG

[42] = molecular target: T41, 4H797-AA; assay: two-hybrid library CCmax; conditions: mean of both orientations
T41 chain: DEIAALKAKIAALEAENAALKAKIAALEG

[43] = molecular target: T42, P5-AA-12HAA-T; assay: two-hybrid library CCmax; conditions: mean of both orientations
T42 chain: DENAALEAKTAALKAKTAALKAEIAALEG

[44] = molecular target: T43, 4H3865-AA; assay: two-hybrid library CCmax; conditions: mean of both orientations
T43 chain: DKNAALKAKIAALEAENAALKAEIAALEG

[45] = molecular target: T44, 4H3625-AA; assay: two-hybrid library CCmax; conditions: mean of both orientations
T44 chain: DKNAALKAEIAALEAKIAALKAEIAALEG

[46] = molecular target: T45, 4H94-AA; assay: two-hybrid library CCmax; conditions: mean of both orientations
T45 chain: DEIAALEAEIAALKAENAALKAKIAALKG

[47] = molecular target: T46, P5-AA-12HAA-R; assay: two-hybrid library CCmax; conditions: mean of both orientations
T46 chain: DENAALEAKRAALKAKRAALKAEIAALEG

[48] = molecular target: T47, 4H745-AA; assay: two-hybrid library CCmax; conditions: mean of both orientations
T47 chain: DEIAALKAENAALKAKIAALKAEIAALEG

[49] = molecular target: T48, 4H536-AA; assay: two-hybrid library CCmax; conditions: mean of both orientations
T48 chain: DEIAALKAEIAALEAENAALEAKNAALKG

[50] = molecular target: T49, P5-AA-12HAA-D; assay: two-hybrid library CCmax; conditions: mean of both orientations
T49 chain: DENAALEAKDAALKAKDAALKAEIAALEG

[51] = molecular target: T50, P5-AA-12HAA-K; assay: two-hybrid library CCmax; conditions: mean of both orientations
T50 chain: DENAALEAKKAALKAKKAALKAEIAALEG

[52] = molecular target: T51, 4H_APH; assay: two-hybrid library CCmax; conditions: mean of both orientations
T51 chain: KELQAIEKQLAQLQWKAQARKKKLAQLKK

[53] = molecular target: T52, P5-AA-1HAA-N; assay: two-hybrid library CCmax; conditions: mean of both orientations
T52 chain: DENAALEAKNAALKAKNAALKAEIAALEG

[54] = molecular target: T53, 4H909-AA; assay: two-hybrid library CCmax; conditions: mean of both orientations
T53 chain: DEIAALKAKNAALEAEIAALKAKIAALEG

[55] = molecular target: GCN2_T; assay: two-hybrid library CCmax; conditions: mean of both orientations
[56] = molecular target: T54, 4H3753-AA; assay: two-hybrid library CCmax; conditions: mean of both orientations
T54 chain: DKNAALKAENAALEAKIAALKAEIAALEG

[57] = molecular target: T55, 4H570-AA; assay: two-hybrid library CCmax; conditions: mean of both orientations
T55 chain: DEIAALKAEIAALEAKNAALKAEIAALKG

Binder: DEIAALEAKIAALKAKIAALKAEIAALEG [Core_IIII-es_EKKE]
interaction score [1]: 2.36

Binder: DEIQQLEQEIQELEQENQELEWENQELEQ [4H19-bN]
interaction score [2]: -0.738
interaction score [3]: -2.16
interaction score [4]: -0.636
interaction score [5]: -0.594
interaction score [6]: 2.27
interaction score [7]: -0.58
interaction score [8]: -1.48
interaction score [9]: -0.528

Binder: DEIAALEAKIAALKAKIAALKAENAALEG [Core_IIIN-es_EKKE]
interaction score [12]: 1.73

Binder: DKNAALKAEIAALEAEIAALEAKIAALKG [4H3590-AA]
interaction score [15]: 1.98
interaction score [16]: -0.0746
interaction score [17]: 2.25
interaction score [18]: 1.75
interaction score [19]: 1.8
interaction score [20]: -0.698
interaction score [21]: 2.25
interaction score [22]: 1.88
interaction score [23]: 1.13
interaction score [24]: 2.01
interaction score [25]: 1.26
interaction score [26]: -1.16
interaction score [27]: -0.923
interaction score [28]: -1.14
interaction score [29]: -0.287
interaction score [30]: -1.4
interaction score [31]: -0.0505
interaction score [32]: 1.33
interaction score [33]: -0.327
interaction score [34]: 2.53
interaction score [35]: 2.42
interaction score [36]: -1.17
interaction score [37]: -0.048
interaction score [38]: -0.0889
interaction score [39]: 1.78
interaction score [40]: -1.08
interaction score [41]: -0.101
interaction score [42]: -1.01
interaction score [43]: 1.63
interaction score [44]: -1.18
interaction score [45]: 2.07
interaction score [46]: -1.15
interaction score [47]: 1.92
interaction score [48]: 1.02
interaction score [49]: -0.687
interaction score [50]: -1.25
interaction score [51]: 2.23
interaction score [52]: -0.247
interaction score [53]: -0.0553
interaction score [54]: -1.14
interaction score [55]: -0.424
interaction score [56]: 0.435
interaction score [57]: -0.136

The remaining lines, values ahead:

interaction score [10]: 2.14
Binder: DENAALEAEIAALEAEIAALEAKIAALKG [Core_NIII-es_EEEK]

interaction score [11]: 2.2
Binder: DENAALEAENAALEAKNAALKAEIAALEG [Core_NNNI-es_EEKE]

interaction score [13]: -0.488
Binder: DENAALEAKNAALKAKNAALKAENAALEG [Core_NNNN-es_EKKE]

interaction score [14]: 2.11
Binder: DEIAALEAENAALEAKIAALKAEIAALEG [Core_INII-es_EEKE]

— PMC10397247
